Experimental data from patent US20070280945A1 (Regeneron, published 2007).
Blank lines part the entries; values can stand above or below the molecule they belong to.

Legend:
[1] = target: recombinant hIL-6R protein, monomeric form (human) (UniProt P08887); test: Kinexa solution-phase competition immunoassay, monomeric hIL-6R
[2] = target: recombinant hIL-6R protein, monomeric form (human) (UniProt P08887); test: SPR (BIAcore), captured antibody, monomeric IL-6R 1.25-40 nM injected
[3] = target: Recombinant monkey monomeric IL-6R protein (Macaca fascicularis, extracellular domain) (Macaca fascicularis); test: as above
[4] = target: recombinant hIL-6R protein, monomeric form (human) (UniProt P08887); test: SPR (BIAcore), captured antibody, monomeric hIL-6R
[5] = target: hIL-6R on hIL-6-responsive human cells (XG-1 myeloma line, HepG2 hepatoma line) (human) (UniProt P08887); test: cell-based or functional assay
hIL-6R-hFc (human) = hIL-6R-hFc (human) (UniProt P08887); test: blocking ELISA: 100 pM hIL-6R-hFc premixed with varied antibody, free hIL-6R-hFc captured on hIL-6-coated plate
[6] = target: T1, recombinant hIL-6R protein, monomeric form (human, UniProt P08887 20-358); test: SPR (BIAcore), antibody captured on goat anti-mouse Fc, monomeric IL-6R 1.25-40 nM injected
T1 construct: also called monomeric hIL-6R; Human IL6R
T1 sequence: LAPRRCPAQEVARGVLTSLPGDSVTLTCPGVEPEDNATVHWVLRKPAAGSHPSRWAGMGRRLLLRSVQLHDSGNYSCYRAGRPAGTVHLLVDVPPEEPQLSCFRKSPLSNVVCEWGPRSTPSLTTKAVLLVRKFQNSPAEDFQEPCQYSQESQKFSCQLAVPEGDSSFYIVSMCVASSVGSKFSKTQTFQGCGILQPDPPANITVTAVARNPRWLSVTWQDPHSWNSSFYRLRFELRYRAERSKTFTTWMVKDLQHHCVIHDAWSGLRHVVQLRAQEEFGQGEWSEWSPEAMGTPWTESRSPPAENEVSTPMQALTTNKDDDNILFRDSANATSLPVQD

[7] = target: T2, Recombinant monkey monomeric IL-6R protein (Macaca fascicularis, extracellular domain) (Macaca fascicularis, UniProt P08887 21-330 (human entry)); test: as above
T2 construct: also called Monkey IL6R; monkey IL-6R
T2 chain: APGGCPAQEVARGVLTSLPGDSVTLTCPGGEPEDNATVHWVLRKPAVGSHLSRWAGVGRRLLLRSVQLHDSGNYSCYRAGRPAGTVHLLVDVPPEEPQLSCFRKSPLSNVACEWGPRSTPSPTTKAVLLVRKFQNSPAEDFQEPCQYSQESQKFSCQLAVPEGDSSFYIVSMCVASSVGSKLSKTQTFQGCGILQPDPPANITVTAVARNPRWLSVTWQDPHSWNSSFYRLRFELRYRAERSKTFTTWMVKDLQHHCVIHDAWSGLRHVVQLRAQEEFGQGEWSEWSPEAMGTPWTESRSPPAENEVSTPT

[8] = target: T2, Recombinant monkey monomeric IL-6R …; test: SPR (BIAcore); reference: binding to human IL-6R; end of range tied to this antibody by Table 4 (0.569 against 0.377 nM)
[9] = target: T1, recombinant hIL-6R protein, monomeric …; test: SPR (BIAcore), captured mouse-IgG antibody, monomeric hIL-6R 1.56-12.5 nM
hIL-6R-hFc [10] = target: T3, hIL-6R-hFc (human, UniProt P08887 20-358); test: competition ELISA: antibody premixed with serial dilutions of hIL-6R-hFc, free antibody detected on hIL-6R-hFc-coated plate
T3 construct: also called dimeric hIL-6R; Dimer; not shown: human Fc (hFc)
T3 sequence: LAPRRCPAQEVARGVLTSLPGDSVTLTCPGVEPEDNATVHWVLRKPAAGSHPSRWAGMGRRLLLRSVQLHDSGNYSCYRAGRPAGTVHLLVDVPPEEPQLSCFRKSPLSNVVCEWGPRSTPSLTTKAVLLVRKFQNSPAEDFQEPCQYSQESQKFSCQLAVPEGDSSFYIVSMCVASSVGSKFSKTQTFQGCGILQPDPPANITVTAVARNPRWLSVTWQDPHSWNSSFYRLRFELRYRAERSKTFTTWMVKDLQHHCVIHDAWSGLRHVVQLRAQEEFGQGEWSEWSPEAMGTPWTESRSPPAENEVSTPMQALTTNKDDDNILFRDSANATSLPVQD

hIL-6R-hFc [11] = target: T3, hIL-6R-hFc; test: blocking ELISA: 100 pM hIL-6R-hFc premixed with varied antibody, free hIL-6R-hFc captured on hIL-6-coated plate
hIL-6R-hFc [12] = target: T3, hIL-6R-hFc; test: SPR (BIAcore): hIL-6R-hFc captured, antibody injected, then 50 nM hIL-6; percent reduction in hIL-6 binding
[13] = target: T4, hIL-6R on hIL-6-responsive human cells (XG-1 myeloma line, HepG2 hepatoma line) (human, UniProt P08887 20-468); test: cell-based or functional assay
T4 sequence (looked up): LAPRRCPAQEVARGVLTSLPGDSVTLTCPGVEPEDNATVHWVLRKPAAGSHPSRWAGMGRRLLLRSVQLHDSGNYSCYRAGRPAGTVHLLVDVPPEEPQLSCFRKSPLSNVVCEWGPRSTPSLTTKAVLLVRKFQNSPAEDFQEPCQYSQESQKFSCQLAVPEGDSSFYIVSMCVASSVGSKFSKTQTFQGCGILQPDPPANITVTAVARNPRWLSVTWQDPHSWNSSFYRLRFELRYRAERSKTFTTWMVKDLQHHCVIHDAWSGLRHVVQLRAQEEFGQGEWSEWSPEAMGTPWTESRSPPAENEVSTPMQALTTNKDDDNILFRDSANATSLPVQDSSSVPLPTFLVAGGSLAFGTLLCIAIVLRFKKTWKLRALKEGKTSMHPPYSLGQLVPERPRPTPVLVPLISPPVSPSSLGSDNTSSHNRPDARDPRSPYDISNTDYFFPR

[14] = target: T5, hIL-6R recombinant protein (plate-coated, Example 5) (human, UniProt P08887 20-358, limits assumed); test: SPR (BIAcore) competition on hIL-6R; competitor: control antibody
T5 construct: also called antigen
T5 sequence: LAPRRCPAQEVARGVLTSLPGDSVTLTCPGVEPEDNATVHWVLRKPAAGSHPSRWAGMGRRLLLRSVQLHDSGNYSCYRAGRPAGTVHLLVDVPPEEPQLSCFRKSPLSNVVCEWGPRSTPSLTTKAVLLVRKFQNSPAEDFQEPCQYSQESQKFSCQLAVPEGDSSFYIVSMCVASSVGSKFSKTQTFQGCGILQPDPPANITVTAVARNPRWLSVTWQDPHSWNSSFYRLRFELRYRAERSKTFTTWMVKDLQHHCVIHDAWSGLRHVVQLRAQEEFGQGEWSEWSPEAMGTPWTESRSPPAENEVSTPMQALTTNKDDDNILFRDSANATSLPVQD

hIL-6R-hFc [15] = target: T3, hIL-6R-hFc; test: SPR (BIAcore), antibody captured on anti-mouse IgG surface, dimeric hIL-6R
[16] = target: T5, hIL-6R recombinant protein …; test: competition ELISA on hIL-6R-coated plate presaturated with competitor control antibody; test antibody 50 ng/ml
[17] = target: T1, recombinant hIL-6R protein, monomeric …; test: SPR (BIAcore), antibody captured on anti-mouse IgG surface, monomeric hIL-6R
[18] = target: T1, recombinant hIL-6R protein, monomeric …; test: Kinexa solution-phase competition immunoassay, monomeric hIL-6R
[19] = target: T4, hIL-6R on hIL-6-responsive human cells …; test: cell-based or functional assay; remark: listed apart in the source
[20] = target: T1, recombinant hIL-6R protein, monomeric …; test: SPR (BIAcore), captured antibody, monomeric hIL-6R

Kd [1]: 1.96 nM
Kd [2]: 0.963 nM
Kd [3]: 1.17 nM
Kd [4]: 1.79 nM
HepG2/Stat3 Luciferase activity IC50 [5]: 0.854 nM
XG-1 cell proliferation Inhibition IC50 [5]: 1.5 nM
IC50 (hIL-6R-hFc (human)): 2.2 nM
Molecule: humanized monoclonal antibody to human IL-6R (U.S. Patent No. 5,817,790 SEQ ID NO:69 and 71)

Kd [6]: 0.377 nM
koff [6]: 0.000276 s⁻¹
kon [6]: 732000 M⁻¹ s⁻¹
Kd [7]: 0.569 nM
koff [7]: 0.000416 s⁻¹
kon [7]: 731000 M⁻¹ s⁻¹
fold difference of KD, monkey against human receptor [8]: 1.5 fold
Kd [9]: 0.222 nM
koff [9]: 0.000221 s⁻¹
kon [9]: 995000 M⁻¹ s⁻¹
IC50 (hIL-6R-hFc [10]): 0.004 nM
IC50 (hIL-6R-hFc [11]): 0.39 nM
hIL6/hIL6R Binding Inhibition (%) (hIL-6R-hFc [12]): 68%
HepG2/Stat3 Luciferase activity IC50 [13]: 0.097 nM
XG-1 cell proliferation Inhibition IC50 [13]: 0.4 nM
% reduction of binding by control antibody [14]: 26%
Kd (hIL-6R-hFc [15]): 0.101 nM
% reduction of binding by control antibody [16]: 3%
Kd [17]: 0.222 nM
Kd [18]: 0.12 nM
HepG2/STAT3 luciferase assay IC50 [19]: 0.097 nM
B1: VQ8A9-6 (antibody, V domains shown)
VH: EVQLVESGGNLVQPGRSLRLSCAASGFIFDDYAMHWVRQAPGKGLEWVSGISWNSGSIGYADSVKGRFTISRDNAKNSLYLQMNSLRAEDTALYYCAKDGGSSWLPFVYYYGMDVWGQGTTVTVSS
VL: EIVMTQSPATLSVSPGERATLSCRASQSISSNFAWYQQKPGQAPRLLIYGASTRATGIPARFSGSGSGTDFTLTISSLQSEDFAVYYCQQYSSWPPYTFGQGTKLEIK
notes: Human variable regions with mouse constant region (hybridoma-derived chimeric antibody); also called VQ8A9-6 mIgG1

IC50 (hIL-6R-hFc [10]): 0.054 nM
Kd [20]: 2.87 nM
B2: 248982-13-2-A9 (antibody, V domains shown)
VH: QVQLVQSGGGLVQPGRSLRLSCAASGFTFDDYAMHWVRQAPGKGLEWVSGISWNSGRVGYADSVKGRFTISRDNAKNSLYLQMNSLRAEDTALYYCTKGRDAFDIWGQGTMVTVSS
VL: DIVMTQSPSSVSASVGDRVTITCRASQGISSWLAWYQQKPGKAPKLLIYAASSLQSGVPSRFSGSGSGTDFTLTISSLQPEDFATYYCQQANSFPYTFGQGTKLEIK
